Measurements reported in publication PMC4231364, “Functional characterization and structural modeling of synthetic polyester-degrading hydrolases from Thermomonospora curvata” (AMB Express, 2014).

B1: Tcur1278 (Thermomonospora curvata DSM 43183) (protein)
chain: ANPYQRGPDPTESLLRAARGPFAVSEQSVSRLSVSGFGGGRIYYPTTTSQGTFGAIAISPGFTASWSSLAWLGPRLASHGFVVIGIETNTRLDQPDSRGRQLLAALDYLTQRSSVRNRVDASRLAVAGHSMGGGGTLEAAKSRTSLKAAIPIAPWNLDKTWPEVRTPTLIIGGELDSIAPVATHSIPFYNSLTNAREKAYLELNNASHFFPQFSNDTMAKFMISWMKRFIDDDTRYDQFLCPPPRAIGDISDYRDTCPHT
notes: mature protein without signal peptide, C-terminal His-tag, codon-optimised synthetic gene, pBAD TOPO, E. coli TOP10, IMAC purified, approx. 35 kDa
B2: Tcur0390 (Thermomonospora curvata DSM 43183) (protein)
chain: ANPYQRGPNPTEASITAARGPFNTAEITVSRLSVSGFGGGKIYYPTTTSEGTFGAIAISPGFTAYWSSLEWLGHRLASQGFVVIGIETNTTLDQPDQRGQQLLAALDYLTQRSAVRDRVDASRLAVAGHSMGGGGSLEAAKARTSLKAAIPLAPWNLDKTWPEVRTPTLIIGGELDAVAPVATHSIPFYNSLSNAPEKAYLELDNASHFFPNITNTQMAKYMIAWMKRFIDDDTRYTQFLCPPPSTGLLSDFSDARFTCPM
notes: as for B1

Assays:
[1] = substrate: CCCC(=O)Oc1ccc([N+](=O)[O-])cc1; test: esterase assay in microplate, Michaelis-Menten kinetics; type: biochemical, Thermomonospora curvata; conditions: 25°C, pH 8.5
Text: esterase assay in microplate, Michaelis-Menten kinetics on Tcur1278

[2] = substrate: CCCC(=O)Oc1ccc([N+](=O)[O-])cc1; test: as above; type: biochemical, Thermomonospora curvata; conditions: 25°C, pH 8.5; remark: listed apart in the source
Text: esterase assay in microplate, Michaelis-Menten kinetics on Tcur0390

| Protein | Km [1] [µM] | kcat [1] [s⁻¹] | Km [2] [µM] | kcat [2] [s⁻¹] |
| --- | --- | --- | --- | --- |
| B1 | 88.8 ± 12.8 | 2.3 ± 0.1 | – | – |
| B2 | – | – | 83.1 ± 11.1 | 12.4 ± 0.4 |
